Data: publication PMC3087504
Values belong to the substance of their own block, whether it stands above or below them.

Key:
[1] = molecular target: TAp63α (murine, N-terminal His6-tag, from pBH4) (mouse); assay: SEC-MALS; Superdex 200 5/150 GL, room temperature, 80 μl of purified protein of ~1 mg/ml, 0.3 ml/min
[2] = molecular target: TAp63α (murine, N-terminal His6-tag, from pBH4) (mouse); assay: SEC; purified proteins from E. coli, 3–15 μM, Superose 6 10/300 GL, 16°C, 10 mM potassium phosphate pH 7.6, 200 mM NaCl; column calibrated with globular standards
MBP-TAp63α (mouse) [3] = assay: SEC-MALS; Superdex 200 5/150 GL, room temperature, 80 μl of purified protein of ~1 mg/ml, 0.3 ml/min
MBP-TAp63α (mouse) [4] = assay: native MS; LILBID-MS, ~10 μM protein dialyzed against 10 mM potassium phosphate pH 7.6 without NaCl
MBP-TAp63α (mouse) [5] = assay: AUC; sedimentation velocity, 45,000 rpm, 4 μM protein, 4°C, 20 mM potassium phosphate pH 7.5, 200 mM NaCl, 2 mM dithiothreitol
MBP-TAp63α (mouse) [6] = assay: AUC; sedimentation equilibrium, 7000 and 9000 rpm, 1–8 μM monomer, 4°C, 20 mM potassium phosphate pH 7.5, 200 mM NaCl, 2 mM dithiothreitol
MBP-TAp63α (mouse) [7] = assay: SEC; purified proteins from E. coli, 3–15 μM, Superose 6 10/300 GL, 16°C, 10 mM potassium phosphate pH 7.6, 200 mM NaCl; column calibrated with globular standards
[8] = molecular target: T1, MBP-TAp63αFTL (Mus musculus) (UniProt O88898); assay: fluorescence anisotropy; conditions: 10 mM potassium phosphate pH 7.6, 200 mM NaCl, room temperature, 30 min, 15 nM p21 DNA (300 nM for controls), protein 0.1-15 µM monomer
T1 sequence: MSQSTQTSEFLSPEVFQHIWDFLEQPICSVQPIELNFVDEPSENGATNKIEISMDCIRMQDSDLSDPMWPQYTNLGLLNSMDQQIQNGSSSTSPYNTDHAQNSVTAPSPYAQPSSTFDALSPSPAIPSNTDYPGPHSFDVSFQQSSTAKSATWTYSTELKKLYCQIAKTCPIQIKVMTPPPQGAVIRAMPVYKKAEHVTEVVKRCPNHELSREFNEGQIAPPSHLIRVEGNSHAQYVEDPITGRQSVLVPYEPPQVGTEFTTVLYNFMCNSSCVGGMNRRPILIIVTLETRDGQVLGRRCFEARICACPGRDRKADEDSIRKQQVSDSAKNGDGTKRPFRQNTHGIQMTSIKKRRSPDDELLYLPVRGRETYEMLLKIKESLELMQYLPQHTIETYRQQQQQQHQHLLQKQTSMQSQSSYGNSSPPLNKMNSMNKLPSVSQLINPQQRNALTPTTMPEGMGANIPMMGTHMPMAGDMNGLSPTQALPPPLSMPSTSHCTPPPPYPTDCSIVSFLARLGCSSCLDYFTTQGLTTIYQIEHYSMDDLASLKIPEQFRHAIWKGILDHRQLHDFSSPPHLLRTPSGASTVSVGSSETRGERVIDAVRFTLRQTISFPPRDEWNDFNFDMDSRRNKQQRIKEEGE

[9] = tested on: T2, MBP-TAp63γ (Mus musculus), O88898-5; assay: fluorescence anisotropy; conditions: 10 mM potassium phosphate pH 7.6, 200 mM NaCl, room temperature, 30 min, 15 nM p21 DNA (300 nM for controls), protein 0.1-15 µM monomer
T2 sequence: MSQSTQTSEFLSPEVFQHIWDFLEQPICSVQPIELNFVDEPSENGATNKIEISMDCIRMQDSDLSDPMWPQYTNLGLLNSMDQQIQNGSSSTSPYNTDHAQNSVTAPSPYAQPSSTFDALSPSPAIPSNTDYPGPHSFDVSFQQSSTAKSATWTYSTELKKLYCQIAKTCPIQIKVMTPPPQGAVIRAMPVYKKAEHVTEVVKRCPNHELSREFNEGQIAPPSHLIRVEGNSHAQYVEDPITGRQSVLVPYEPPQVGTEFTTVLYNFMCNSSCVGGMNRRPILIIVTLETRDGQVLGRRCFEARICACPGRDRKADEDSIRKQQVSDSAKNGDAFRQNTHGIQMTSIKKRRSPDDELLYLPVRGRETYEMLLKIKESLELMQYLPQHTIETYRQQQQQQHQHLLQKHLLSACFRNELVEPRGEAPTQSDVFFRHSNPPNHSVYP

p63 (Homo sapiens) = p63 (Homo sapiens) (UniProt Q9H3D4); conditions: cited from earlier work
[10] = molecular target: His-MBP-ΔNp63α^PPR (mouse); assay: SEC; purified proteins from E. coli, 3–15 μM, Superose 6 10/300 GL, 16°C, 10 mM potassium phosphate pH 7.6, 200 mM NaCl; column calibrated with globular standards
[11] = second binding site of two-site fit, suggested unspecific
[12] = two-site fit, first site, monomer concentration

Chain of p63 (Q9H3D4 whole entry): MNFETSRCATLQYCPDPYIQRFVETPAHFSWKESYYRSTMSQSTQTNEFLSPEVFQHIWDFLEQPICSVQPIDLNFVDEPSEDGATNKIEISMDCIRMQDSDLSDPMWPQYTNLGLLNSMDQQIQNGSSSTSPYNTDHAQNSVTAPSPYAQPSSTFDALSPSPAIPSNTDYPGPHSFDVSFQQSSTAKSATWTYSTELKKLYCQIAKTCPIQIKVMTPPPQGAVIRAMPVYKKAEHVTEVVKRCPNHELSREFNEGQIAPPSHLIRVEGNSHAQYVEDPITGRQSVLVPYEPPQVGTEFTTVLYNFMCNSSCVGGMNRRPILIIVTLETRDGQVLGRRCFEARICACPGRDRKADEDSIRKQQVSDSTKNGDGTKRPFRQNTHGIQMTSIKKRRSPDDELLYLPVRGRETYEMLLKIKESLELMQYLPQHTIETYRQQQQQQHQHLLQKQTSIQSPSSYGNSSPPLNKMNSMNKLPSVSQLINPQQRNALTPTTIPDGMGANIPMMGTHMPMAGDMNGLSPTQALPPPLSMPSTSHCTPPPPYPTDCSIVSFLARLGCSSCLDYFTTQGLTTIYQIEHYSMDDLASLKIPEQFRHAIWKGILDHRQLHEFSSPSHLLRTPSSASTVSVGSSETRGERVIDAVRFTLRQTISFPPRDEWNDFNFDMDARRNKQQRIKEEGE

Substance: GGCAGGAACATGTCCCAACATGTTGAGCCG (double strand) [p21 promoter response element]
Kd [8, 11]: 47100 nM | Kd [8, 12]: 380 nM | Kd [9, 11]: 20800 nM | Kd [9, 12]: 340 nM

Substance: p63 (from UniProt Q9H3D4)
Kd (p63 (Homo sapiens)): 12 nM

Substance: His-MBP-ΔNp63α^PPR (natural protein)
stoichiometry N [10]: 4

Further lines, results first:

stoichiometry N [1]: 2 | stoichiometry N [2]: 2
Substance: TAp63α (murine, N-terminal His6-tag, from pBH4) (natural protein)

stoichiometry N (MBP-TAp63α (mouse) [3]): 2 | stoichiometry N (MBP-TAp63α (mouse) [4]): 2 | stoichiometry N (MBP-TAp63α (mouse) [5]): 2 | stoichiometry N (MBP-TAp63α (mouse) [6]): 2 | stoichiometry N (MBP-TAp63α (mouse) [7]): 2
Substance: MBP-TAp63α (natural protein)
